B1: Hunk (hormonally up-regulated, neu-tumor-associated kinase), murine, 714-amino-acid ~80-kDa polypeptide (protein)
chain: MPAAAGDGLLGEPAAPGGDGGAEDTTRPAAACEGSFLPAWVSGVSRERLRDFQHHKRVGNYLIGSRKLGEGSFAKVREGLHVLTGEKVAIKVIDKKRAKKDTYVTKNLRREGQIQQMIRHPNITQLLDILETENSYYLVMELCPGGNLMHKIYEKKRLDEAEARRYIRQLISAVEHLHRAGVVHRDLKIENLLLDEDNNIKLIDFGLSNCAGILGYSDPFSTQCGSPAYAAPELLARKKYGPKIDVWSIGVNMYAMLTGTLPFTVEPFSLRALYQKMVDKAMNPLPTQLSTGAVNFLRSLLEPDPVKRPNIQQALANRWLNENYTGKVPCNVTYPNRISLEDLSPSVVLHMTEKLGYKNSDVINTVLSNRACHILAIYFLLNKKLERYLSGKSDIQDSICYKTQLYQIEKCRATKEPYEASLDTWTRDFEFHAVQDKKPKEQEKRGDFLHRPFSKKLDKNLPSHKQPSPSLITQLQSTKALLKDRKASKSGFPDKDSFVCRNLFRKTSDSNCVASSSMEFIPVPPPRTPRIVKKLEPHQPGPGSASILPKEEPLLLDMVRSFESVDREDHIELLSPSHHYRILSSPVSLARRNSSERTLSQGLLSGSTSPLQTPLHSTLVSFAHEEKNSPPKEEGVCSPPPVPSNGLLQPLGSPNCVKSRGRFPMMGIGQMLRKRHQSLQPSSERSLDASMSPLQPIAPSSLSFDMADGVKGQC
Q: B1 was tested. Which “in vitro kinase assay of Hunk immunoprecipitates with [gamma-32P]ATP” value (histone H1) did it give?
A: Hunk immunoprecipitates were able to phosphorylate both histone H1 and MBP in vitro

Q: And the “in vitro kinase assay of anti-Hunk (C-terminal antisera) immunoprecipitates from lactating mammary glands” value (histone H1)?
A: Hunk-associated kinase activity was substantially greater in immunoprecipitates prepared from transgenic when compared with wild type mammary glands

Q: And the “in vitro kinase assay of Hunk immunoprecipitates with [gamma-32P]ATP” value (myelin basic protein)?
A: Hunk immunoprecipitates were able to phosphorylate both histone H1 and MBP in vitro
